Measurements published in US20180273623A1.

Target: EGFR (human) (UniProt P00533)
Assay: flow cytometry on HCC-1954 cells, upper panel; staining antibody not named on the sheet or in the legend, assigned by analogy with FIG. 28A and 28C; open histogram shifted from the hatched control

- MFI: 262
Substance: EGFR 528 (phb 704) (antibody)
